Laboratory results reported in the supplement of paper PMC10126150.
± gives the standard deviation of the averaged measurements.

System: ATP
Test: switch fluorescence ratio, 500 uM ATP over buffer (Cy3 cluster intensity, sum of 5 cycles each) (fold (ratio)); higher = stronger signal-on switching upon ATP binding; sequences stand for … in TCGTCGGCAGCGTCAGATGTGTATAAGAGACAGTTTTTTTTTTTTTTTTTTTTTTTTT…TC
Conditions: aptamer strand: ATP DNA aptamer (quencher-CACCTGGGGGAGTATTGCGGAGGAAGG + anchor), 100 nM annealed; ATP concentration: 500 uM
In short: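 Imaging in selection buffer was followed by imaging after 15 min with 500 uM ATP at 22 °C, for Cy3-labelled switching-strand clusters annealed to 100 nM quencher-labelled ATP aptamer on a modified Illumina MiSeq flow-cell. Five of these buffer/ATP cycles ran, separated by NaOH stripping and re-annealing. The fluorescence ratio per cluster is summed target-cycle over summed buffer-cycle Cy3 intensity, averaged per switch-domain sequence; clusters outside 100-1000 RFU were removed.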
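Note: ATP exposure 15 min at 22 °C before imaging.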

Sequence	switch fluorescence ratio
GTTGATAGCG	0.991 ± 0.025
GTTGATAGTA	0.993 ± 0.031
GTTGATCTGC	1 ± 0.029
GTTGATTTTC	1.017 ± 0.0079
GTTGCAGCCT	0.981 ± 0.018
GTTGCAGTTG	1.07 ± 0.077
GTTGCATATT	0.978 ± 0.023
GTTGCGACGG	1 ± 0.028
GTTGCGGGCG	0.991 ± 0.06
GTTGCTATTT	1.0045 ± 0.00071
GTTGCTGGTG	1.025 ± 0.0071
GTTGCTTAGT	0.9724 ± 0.0038
GTTGGAAGAG	0.957 ± 0.051
GTTGGAAGGT	1.02 ± 0.012
GTTGGCACGA	1.04 ± 0.018
GTTGGCAGTG	0.978 ± 0.033
GTTGGCCTCT	1.02 ± 0.022
GTTGGCGGGG	0.976 ± 0.015
GTTGGCGGGT	1 ± 0.017
GTTGGCGTTT	1.02 ± 0.08
GTTGGCTTGG	1.02 ± 0.04
GTTGGCTTTC	1.019 ± 0.0077
GTTGGGATGG	0.991 ± 0.015

Sequence	switch fluorescence ratio
GTTGGGCCGA	1.03 ± 0.038
GTTGGGGAAG	0.972 ± 0.034
GTTGGGGCAA	1.03 ± 0.02
GTTGGGGCGA	1.02 ± 0.076
GTTGGGGGGC	0.992 ± 0.036
GTTGGGTAAA	0.983 ± 0.014
GTTGGGTAGT	0.9962 ± 0.006
GTTGGGTCCC	0.9857 ± 0.0069
GTTGGTAGGA	1.01 ± 0.033
GTTGGTATGT	0.994 ± 0.018
GTTGGTATTG	1 ± 0.021
GTTGGTGTAT	0.9913 ± 0.009
GTTGGTTACA	1.008 ± 0.0065
GTTGGTTCCG	0.996 ± 0.022
GTTGGTTCGT	1.02 ± 0.034
GTTGGTTGTT	0.985 ± 0.023
GTTGTAAGGG	0.998 ± 0.04
GTTGTAATCA	0.98 ± 0.024
GTTGTACGAG	0.9824 ± 0.0058
GTTGTACGGG	1.02 ± 0.047
GTTGTAGCCA	0.966 ± 0.043
GTTGTAGGTT	0.966 ± 0.023
GTTGTATACT	0.993 ± 0.076

Sequence	switch fluorescence ratio
GTTGTATAGA	1 ± 0.019
GTTGTATGTT	1.02 ± 0.039
GTTGTCAGGG	0.982 ± 0.012
GTTGTGAGGA	0.984 ± 0.036
GTTGTGAGGG	0.981 ± 0.018
GTTGTGATAG	1.01 ± 0.021
GTTGTGATTT	0.953 ± 0.032
GTTGTGCCTG	1.01 ± 0.041
GTTGTGCTGA	1.02 ± 0.0085
GTTGTGTTGT	0.979 ± 0.028
GTTGTGTTTT	1.01 ± 0.026
GTTGTTAAGG	0.996 ± 0.014
GTTGTTAATT	1.01 ± 0.029
GTTGTTGAGT	0.997 ± 0.0024
GTTGTTGCTC	0.987 ± 0.04
GTTGTTGGAA	0.963 ± 0.049
GTTGTTGGGT	0.983 ± 0.034
GTTGTTTTCG	0.987 ± 0.039
GTTGTTTTGT	0.985 ± 0.021
GTTGTTTTTA	0.987 ± 0.01
GTTGTTTTTG	1.02 ± 0.028
GTTGTTTTTT	0.988 ± 0.036
GTTTAAAAAA	1 ± 0.021

Sequence	switch fluorescence ratio
GTTTAAACTC	0.961 ± 0.022
GTTTAAACTT	0.996 ± 0.039
GTTTAAAGTC	0.989 ± 0.059
GTTTAAAGTG	1 ± 0.026
GTTTAAGTTT	0.996 ± 0.022
GTTTAATCCG	0.975 ± 0.013
GTTTAATGGT	0.9852 ± 0.009
GTTTAATTTA	1.01 ± 0.03
GTTTAGAGTC	1 ± 0.037
GTTTAGGAGG	0.989 ± 0.022
GTTTAGTTTG	0.992 ± 0.044
GTTTATAAAC	0.973 ± 0.064
GTTTATAATG	0.986 ± 0.02
GTTTATGAGC	1 ± 0.022
GTTTATGCAT	1 ± 0.022
GTTTATTAAA	1.04 ± 0.012
GTTTATTATA	1 ± 0.011
GTTTATTGGC	0.995 ± 0.019
GTTTATTTTT	0.997 ± 0.023
GTTTCAACTG	1 ± 0.12
GTTTCAGGGG	1.09 ± 0.015
GTTTCATATG	1.03 ± 0.047
GTTTCCAACT	1.01 ± 0.021

Sequence	switch fluorescence ratio
GTTTCCGTTT	0.973 ± 0.017
GTTTCGAAAA	0.9855 ± 0.0074
GTTTCGTAAT	1.084 ± 0.0038
GTTTCGTATA	0.997 ± 0.044
GTTTCGTGAG	0.994 ± 0.054
GTTTCTTAGC	0.998 ± 0.081
GTTTCTTTCG	1.01 ± 0.067
GTTTGAACGC	1.08 ± 0.018
GTTTGACACT	0.99 ± 0.042
GTTTGAGGGG	0.992 ± 0.012
GTTTGATAGA	0.984 ± 0.027
GTTTGATGTC	1 ± 0.1
GTTTGCAAAT	0.991 ± 0.034
GTTTGCAGCA	1.03 ± 0.027
GTTTGCAGGA	0.995 ± 0.027
GTTTGCGTTA	0.962 ± 0.05
GTTTGGACAG	1.007 ± 0.01
GTTTGGCGT	1.03 ± 0.045
GTTTGGCGTA	0.967 ± 0.015
GTTTGGGACG	0.9905 ± 0.0082
GTTTGGGGAG	0.977 ± 0.018
GTTTGGGGGA	0.9909 ± 0.0052
GTTTGGGGGC	1.03 ± 0.043

Sequence	switch fluorescence ratio
GTTTGGGTAA	0.99 ± 0.037
GTTTGGGTCA	1.03 ± 0.011
GTTTGGTATT	1.01 ± 0.04
GTTTGGTGTG	0.975 ± 0.033
GTTTGTACTC	0.997 ± 0.037
GTTTGTAGAG	0.993 ± 0.026
GTTTGTAGGC	0.9641 ± 0.0017
GTTTGTGGGA	0.974 ± 0.019
GTTTGTGTAC	1.11 ± 0.075
GTTTGTTGAG	0.979 ± 0.025
GTTTGTTGGA	0.967 ± 0.03
GTTTGTTGGT	0.977 ± 0.013
GTTTTAAAGT	1.02 ± 0.017
GTTTTAACGG	1.02 ± 0.029
GTTTTAATGG	1.01 ± 0.025
GTTTTACATT	1.02 ± 0.021
GTTTTAGAGC	1.05 ± 0.025
GTTTTAGATA	0.993 ± 0.031
GTTTTAGCTG	0.986 ± 0.059
GTTTTAGGGT	1 ± 0.031
GTTTTAGGTT	0.993 ± 0.023
GTTTTAGTCA	0.9989 ± 0.001
GTTTTAGTCC	1.01 ± 0.025

Sequence	switch fluorescence ratio
GTTTTATCCT	1.05 ± 0.011
GTTTTATGCT	1.01 ± 0.017
GTTTTCAAGT	0.979 ± 0.039
GTTTTCACGT	1.01 ± 0.013
GTTTTCCGGA	0.996 ± 0.05
GTTTTCGGGC	0.987 ± 0.067
GTTTTCGTTT	0.9711 ± 0.0058
GTTTTGAAAA	0.949 ± 0.019
GTTTTGACAC	1.02 ± 0.013
GTTTTGAGGT	1.02 ± 0.028
GTTTTGCTGT	0.986 ± 0.046
GTTTTGGGGT	0.986 ± 0.013
GTTTTGGTTG	1.01 ± 0.027
GTTTTGGTTT	0.986 ± 0.024
GTTTTGTGGA	1.01 ± 0.007
GTTTTGTGGT	0.954 ± 0.021
GTTTTTAAGT	1.03 ± 0.04
GTTTTTACGG	1.04 ± 0.0059
GTTTTTAGGC	1.02 ± 0.094
